{"source": "patent US20150160219", "proteins": {"B1": {"name": "human neutrophil elastase (HNE) (Lee biotech, 342-40) (protein)", "chain": "IVGGRRARPHAWPFMVSLQLRGGHFCGATLIAPNFVMSAAHCVANVNVRAVRVVLGAHNLSRREPTRQVFAVQRIFENGYDPVNLLNDIVILQLNGSATINANVQVAQLPAQGRRLGNGVQCLAMGWGLLGRNRGIASVLQELNVTVVTSLCRRSNVCTLVRGRQAGVCFGDSGSPLVCNGLIHGIASFVRGGCASGLYPDAFAPVAQFVNWIDSIIQ"}}, "molecular_target": "T1, Indicator molecule of Example 3 (synthetic peptide with MMP-9 sequence, HNE sequence, DNP, fluorescent label and terminal biotin via PEG)", "T1 chain": "GPQGIFGQGAAPVA"}
{"protein": "B1", "values": [{"measurement": "detectable limit of the lateral flow cleavage assay", "value": "approximately 62.5-125 ng/ml"}]}
